# Laboratory results published in patent publication US20190201494A1, “COMPOSITIONS AND METHODS FOR TREATING NICOTINE WITHDRAWAL” (STC UNM, priority 2016, published 2019).
# “Also recorded” adds a separate entry of the source.
# Tests used:
# [1] = tested on: overnight abstinent smokers; experiment: Blood measurements: insulin, glucose, C-peptide, non-esterified fatty acids (Example 1); assay type: in vivo, human
# Experimental: Blood measurements: Blood samples were analyzed for measurements of insulin, glucose, C-peptide, and non-esterified fatty acids.
# Serum insulin was analyzed on the Immulite 1000 immunoassay system (Siemens Healthcare GmbH, Erlangen, Germany). This is a solid-phase, enzyme-labeled chemiluminescent immunometric assay. The solid phase (bead) was coated with monoclonal murine anti-insulin antibody. The liquid phase consisted of alkaline phosphatase (bovine calf intestine) conjugated to polyclonal sheep anti-insulin antibody and alkaline phosphatase (bovine calf intestine) conjugated to monoclonal murine anti-insulin antibody. The patient sample and the reagent were incubated together with the coated bead for 60 minutes. During this time, insulin in the sample forms the antibody sandwich complex with the monoclonal murine anti-insulin antibody on the bead, enzyme conjugated polyclonal sheep anti-insulin antibody, and enzyme conjugated monoclonal murine anti-insulin antibody in the reagent. Unbound patient sample and enzyme conjugate were then removed by centrifugal washes. Finally, chemiluminescent substrate was added to the test unit containing the bead and the signal is generated in proportion to the bound enzyme.
# Serum glucose was performed on the ACE ALERA system (Alfa Wassermann Diagnostic Technologies, S.p.A., Bologna, Italy). An increase in absorbance of NADH is directly proportional to glucose concentration, and was measured bichromatically at 340 nm/378 nm.
# Serum C-peptide was performed on the Immulite 1000 immunoassay system (Siemens Healthcare GmbH, Erlangen, Germany). This is a solid-phase, two-site chemiluminescent immunometric assay. The solid phase (bead) is coated with monoclonal murine anti-C-peptide antibody. The liquid phase consists of alkaline phosphatase (bovine calf intestine) conjugated to monoclonal murine anti-C-peptide antibody in buffer. The patient sample and the reagent were incubated together with the coated bead for 30 minutes. During this time, C-peptide in the sample forms the antibody sandwich complex with monoclonal murine anti-C-peptide antibody in the reagent. Unbound patient sample and enzyme conjugate were then removed by centrifugal washes. Finally, chemiluminescent substrate was added to the Test Unit containing the bead and the signal is generated in proportion to the bound enzyme.
# Blood samples were collected at 12:20, 13:00, 13:40, and 14:10 and analyzed for non-esterified fatty acids using an AU 480 chemistry analyzer (Beckman Coulter, Inc., Brea, Calif.) using a NEFA-HR(2) kit (Wako Chemicals USA, Inc., Cape Charles, Va.).
# Random coefficient models were constructed for analyzing subjective (i.e., craving and mood), blood (insulin, glucose, C-peptide and nonesterified fatty acids) and cardiovascular (blood pressure) measures. For every model, an evaluation of non-linear term was performed, and, if significance was detected, that polynomial term for time was included in the model. Treatment, time and treatment by time interaction were included as fixed effects. Time nested within subjects was included as a random effect. If an interaction was detected, post hoc comparisons were performed comparing treatment groups at each time point. Cortisol was log-transformed for the purpose of normalizing distribution. The summary measure for cortisol analysis was peak change from baseline. […] Significance values are reported as detected; no adjustments were made for multiple comparisons.
# [2] = tested on: overnight abstinent smokers; experiment: Salivary cortisol response to Trier Social Stress Test (Example 1); assay type: in vivo, human; conditions: 60 IU vs placebo, F(1,35)=12.78, p≤0.001
# Description: Intranasal spray administration of insulin or placebo occurred at 12:30 PM. The purpose of the spacing time between morning check-in and nasal spray administration was stabilization of postprandial insulin levels. In a randomized fashion, the study nurse administered one spray in each nostril every three minutes for the total of six sprays of either insulin or placebo. Instructions to perform the Trier Social Stress Test were given at 13:20, and speech delivery occurred 13:30. Briefly, the Trier Social Stress Test^13 is a standardized laboratory stressor consisting of a free speech and a mental arithmetic task in front of an audience. Participants were introduced to the task and instructed to prepare a 5-minute presentation in which they were to promote their candidacy for a job. […]
# Salivary measures: Saliva samples were collected using a saliva collection kit (Salimetrics, LLC, Carlsbad, Calif.). Saliva samples were collected at 08:30, 12:20, 13:00, 13:40, 13:50, 14:00, 14:10, and 14:40, and analyzed for cortisol as follows: A microtitre plate was coated with monoclonal antibodies to cortisol using salivary cortisol ELISA kit (Salimetrics, LLC, Carlsbad, Calif.). […] Bound cortisol peroxidase was measured by the reaction of the peroxidase enzyme on the substrate tetramethylbenzidine (TMB). […] Optical density was read on a standard plate at 450 nm. […]
substance,measurement,setting,value
"intranasal insulin: bulk human Regular insulin (U100 Novolin R, Novo Nordisk US), 100 IU/ml, six nasal sprays delivering 60 IU","Glucose, effect of treatment",[1]; 60 IU intranasal vs placebo,did not differ; also recorded: subjects remained well within euglycemic range; also recorded: minor decline in plasma glucose concentrations
same,"Serum (circulating) insulin levels, effect of treatment",[1]; 60 IU intranasal vs placebo,did not differ; also recorded: no detection of treatment effects; also recorded: no significant changes in circulating insulin
same,"Serum insulin, treatment×time interaction, b","[1]; SE(b)=0.01, z=−0.37, p=0.71, non-significant",−0.005
same,"Glucose, treatment×time interaction, b","[1]; SE(b)=0.02, z=2.60, p≤0.01",0.05
same,"Glucose, treatment, b","[1]; SE(b)=2.55, z=−1.06, p=0.28",−2.72
same,"Peak salivary cortisol levels following stress procedure (peak change from baseline, log-transformed)",[2],"increased (i.e., restored) the blunted cortisol response to stress; also recorded: restores blunted cortisol response to stress"
same,"Peak salivary cortisol levels following stress procedure (peak change from baseline, log-transformed)",[2]; listed as Intranasal insulin,significantly increased
